Results reported in patent US20230233632A1 (MYCOMAGIC BIOTECHNOLOGY, published 2023).

Target: T1, ACE2 tested for a complex with GMI by immunoprecipitation (human, UniProt Q9BYF1 18-805)
T1 construct: also called hACE2; angiotensin converting enzyme 2
Experiment: immunoprecipitation

T1 sequence (Q9BYF1 18-805 limits assumed, one chain of several): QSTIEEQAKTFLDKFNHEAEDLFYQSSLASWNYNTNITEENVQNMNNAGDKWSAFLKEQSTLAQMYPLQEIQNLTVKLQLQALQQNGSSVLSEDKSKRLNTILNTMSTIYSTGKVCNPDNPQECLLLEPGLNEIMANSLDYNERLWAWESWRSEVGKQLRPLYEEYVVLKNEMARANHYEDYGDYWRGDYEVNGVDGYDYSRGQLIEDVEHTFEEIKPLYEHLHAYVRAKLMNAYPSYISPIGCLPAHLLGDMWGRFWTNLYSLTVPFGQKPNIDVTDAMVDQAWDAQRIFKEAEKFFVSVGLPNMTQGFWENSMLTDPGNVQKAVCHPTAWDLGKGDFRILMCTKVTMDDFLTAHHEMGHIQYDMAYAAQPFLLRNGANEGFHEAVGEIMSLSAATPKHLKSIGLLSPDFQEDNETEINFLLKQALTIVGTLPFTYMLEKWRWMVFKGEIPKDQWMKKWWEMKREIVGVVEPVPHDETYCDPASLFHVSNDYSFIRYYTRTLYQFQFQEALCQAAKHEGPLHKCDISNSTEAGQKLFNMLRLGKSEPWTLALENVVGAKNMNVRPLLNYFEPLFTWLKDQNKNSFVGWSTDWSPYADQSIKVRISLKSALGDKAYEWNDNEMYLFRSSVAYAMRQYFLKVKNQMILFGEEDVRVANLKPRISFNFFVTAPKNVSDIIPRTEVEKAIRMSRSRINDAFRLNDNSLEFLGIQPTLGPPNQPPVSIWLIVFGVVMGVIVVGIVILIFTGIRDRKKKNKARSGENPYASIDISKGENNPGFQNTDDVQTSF

B1: Ganoderma immunomodulatory protein (GMI) from Ganoderma microsporum (other)
chain: MSDTALIFTLAWNVKQLAFDYTPNWGRGRPSSFIDTVTFPTVLTDKAYTYRVVVSGKDLGVRPSYAVESDGSQKINFLEYNSGYGIADTNTIQVYVIDPDTGNNFIVAQWN
notes: also called His tagged-GMI; fungal immunomodulatory protein (FIP)
B1: no binding.
